Non-standard residues stand in square brackets, D forms with d. Residues, ends and D or L forms follow the SMILES beside them. dPhe(4-Cl) = N[C@H](Cc1ccc(Cl)cc1)C(=O)O; d2Nal = N[C@H](Cc1ccc2ccccc2c1)C(=O)O; dCit = NC(=O)NCCC[C@@H](N)C(=O)O; d3Pal = N[C@H](Cc1cccnc1)C(=O)O
How the values were obtained:
[1] = system: bilateral ovariectomized female C57BL/6JRj mice; test: Menopausal mouse model: temperature and tissue weights; assay type: in vivo; conditions: for Body weight compared with vehicle: after 10 days treatment
Procedure: Bilateral ovariectomized female C57BL/6JRj mice, 8 weeks of age, were included in the study and administered with IgG2b (control) or 1 of 3 test articles (LH-β ab, LHCGR ab or GnRH antagonist) either at study day 1, or once a day for 9 days. The control/vehicle treatment was a non-specific antibody (IgG2b). The route of administration was through intraperitoneal (i.p.) injection. The study had four groups in total (Table 3); group 1 (female, n=6) was treated i.p. with IgG2b (control) on study day 1 and day 5, group 2 (female, n=3) was treated i.p. with LH-β ab at study day 1, group 3 (female, n=3) was treated i.p. with LHCGR ab at study day 1, group 4 (female, n=3) was treated i.p. with GnRH antagonist once a day (q.d.) for 9 days. Blood for preparation of serum was collected prior to dosing on study day 1 and at termination on study day 10. Core temperature and skin temperature were determined in female mice pre-dose on study day 1, at study day 5 and at termination on study day 10.
Seventeen (17) ovariectomized C57BL/6JRj female mice 8 weeks of age were supplied by Janvier Labs France. The ovaries from the female mice were surgically removed by the supplier. The mice were caged in European IVC cages type IIL. Temperature was 20° C. to 24° C. and the light cycle 12-hour dark and 12-hour light (lights on 06.00). The diet was Altromin 1324, produced by Altromin, Im Seelenkamp 20, 32791 Lage, Germany.
Temperature measurements were done using rectal thermometer (thermometer BIO-TK8851 combined with rectal probe BIO-BRET-3, both from BIOSEB Lab instruments) for core temperature and infrared (153-IRB Infrared Thermometer, BIOSEB Lab instruments) for skin temperature. The core temperature was recorded rectally, and skin temperature was recorded at the tail and the head between the ears at the same time of the day (morning). Immediately after termination, tissues (fat and thyroid mass) were dissected, weighed, placed in Eppendorf tubes and snap frozen by emerging the tube in liquid nitrogen or placed in histology jar and fixed in 4% neutral buffered formalin.

[2] = system: bilateral ovariectomized female C57BL/6JRj mice; test: Calcium excretion and kidney weight in menopause mouse model; assay type: in vivo; conditions: for kidney weight compared with vehicle (IgG2b): female mice without ovaries; for kidney weight compared with vehicle (IgG2b) / calcium excretion: day 10; for calcium excretion: female mouse model
Procedure: (§1) Bilateral ovariectomized female C57BL/6JRj mice, 8 weeks of age, were included in the study and administered with IgG2b (control) or 1 of 3 test articles (LH-β ab, LHCGR ab or GnRH antagonist) either at study day 1, study day 1 and 5 or once a day for 9 days. The route of administration was through intraperitoneal (i.p.) injection. The study included be 6 groups in total (Table 6); group 1 (female, n=6) was treated i.p. with IgG2b (control) on study day 1 and day 5, group 2 (female, n=3) was treated i.p. with LH-β ab at study day 1, group 3 (female, n=1) was treated i.p. with LH-β AB on study day 1 and day 5, Group 4 (female, n=3) was treated i.p. with LHCGR ab at study day 1, group 5 (female, n=1) was treated i.p. with LHCGR ab on study day 1 and day 5, group 6 (female, n=3) was treated i.p. with GnRH antagonist once a day (q.d.) for 9 days. Blood for preparation of serum was collected prior to dosing on study day 1 and at termination on study day 10. Urine and kidneys were collected on day 10.
Seventeen (17) bilateral ovariectomized C57BL/6JRj female mice 8 weeks of age, were supplied by Janvier Labs France. The ovaries from the female mice were surgically removed by the supplier (see also Table 6). Fourteen (14) C57BL/6JRj male mice were also stratified into the different groups except that no male mice were treated with GnRH antagonist, and the male mice were therefore only stratified into groups 1-5 (see also Table 7).

human kidney tissue = test: Ex vivo culture of human kidney tissue, qRT-PCR gene expression; assay type: cell-based
Procedure: Human kidney tissues from 5 adults (4 men, 1 […]) were cultured. All donors underwent partial nephrectomy due to suspected malignant kidney tumors and a pathologist removed tissues outside the malignant area. Kidney specimens were dissected in small pieces 1 mm^3 and cultured for either 3 or 24 hours in a hanging drop ex vivo model.
Gene expression profiling was done by qRT-PCR analyzing levels of calcium transporters SLC12A-1, SLC12A-2, TRPV5 as well as calcium-sensing receptor (CASR). The inventors also measured kidney expression of exon 2-4 and 11 of LHCGR using a primer-sequence previously validated by sequencing of the product from both serum and testis tissue. As calcium transporters are differentially expressed in the different parts of the nephron, all samples were standardized according to the expression of Uromodulin (UMOD), a protein located in the thick ascending limb of the loop of Henle and subsequently to MAP3K7 expressed in the distal convoluted tubules and in addition to being standardized to the housekeeping gene, RPS20. Ethical committee approval: H-17004362. All samples were analyzed with ANOVA with control/baseline as reference value and every p-value presented was adjusted for multiple comparisons with Dunnett's post hoc test.

C57BL/6JRj male mice = test: Calcium excretion and kidney weight in normal male mice; assay type: in vivo
Procedure: as §1
Seventeen (17) bilateral ovariectomized C57BL/6JRj female mice 8 weeks of age, were supplied by Janvier Labs France. The ovaries from the female mice were surgically removed by the supplier (see also Table 6). […]

Q: Which visceral fat mass ([1]; 10 days) does the source give for `CC(=O)N[C@H](Cc1ccc2ccccc2c1)C(=O)N[C@H](Cc1ccc(Cl)cc1)C(=O)N[C@H](Cc1cccnc1)C(=O)N[C@@H](CO)C(=O)N[C@@H](Cc1ccc(O)cc1)C(=O)N[C@H](CCCNC(N)=O)C(=O)N[C@@H](CC(C)C)C(=O)N[C@@H](CCCNC(=N)N)C(=O)N1CCC[C@H]1C(=O)N[C@H](C)C(N)=O` [GnRH antagonist, Cetrorelix, reference compound] (Ac-[d2Nal][dPhe(4-Cl)][d3Pal]SY[dCit]LRP[dA]-NH2) here?
A: Its visceral fat mass is “suppressed”.

Q: And the “Body weight compared with vehicle” value [1]?
A: The value was “lower”.

Q: And the “kidney weight compared with vehicle (IgG2b)” value [2]?
A: The value was “slightly lower”.

Q: And the calcium excretion [2]?
A: The calcium excretion was “suppressed calcium excretion”.

Q: For `C[C@]12CC[C@H]3[C@@H](CCC4=CC(=O)CC[C@@]43C)[C@@H]1CC[C@@H]2O` [testosterone, reference compound], which “expression of LHCGR exon 11” value (human kidney tissue; three hours ex vivo culture, 5 out of 5 below detection vs vehicle 3 out of 10) is on record?
A: The value was “suppressed”.

B1: PTH: parathyroid hormone, added to kidney tissue culture media at 0.01 pg/mL (protein, UniProt P01270 32-115, looked up)
Parathyroid hormone: SVSEIQLMHNLGKHLNSMERVEWLRKKLQDVHNFVALGAPLAPRDAGSQRPRKKEDNVLVESHEKSLGEADKADVNVLTKAKSQ
modifications: Parathyroid hormone
notes: parathyroid hormone, added to kidney tissue culture media at 0.01 pg/mL
Q: With B1 as the molecule, how does the TRPV5 expression (human kidney tissue; after 24 hours) read?
A: The TRPV5 expression was “significantly increased”.

B2: LH-β ab: Monoclonal mouse antibody (IgG2B; Kappa) targeting mouse LH beta; variable light chain SEQ ID NO: 5, heavy chain SEQ ID NO: 9 (antibody)
heavy: MEWRIFLFILSGTAGVHSQVQLQQSGPELVKPGTSLKLSCKASGYTFTDYVLTWVKQRTGQGLEWIGEIYPGSGSTSYNEKFRGKATLTADKSSNTAYMQLSSLTSEDSAVYFCAHLYYADYDFSYWGQGTLVTVSAAKTTPPSVYPLAPGCGDTTGSSVTLGCLVKGYFPESVTVTWNSGSLSSSVHTFPALLQSGLYTMSSSVTVPSSTWPSQTVTCSVAHPASSTTVDKKLE
light: MKLPVRLLVLMFWIPVSSSDVLMTQIPLSLVVSLGDQASISCRSSQNIVQSNGNTYLEWYLQKPGQSPKLLIYKVSNRFSGVPDRFSGSGSGTDFTLKISRVEAEDLGVYYCFQGSHVPLTFGAGTKLELKRADAAPTVSIFPPSSEQLTSGGASVVCFLNNFYPKDINVKWKIDGSERQNGVLNSWTDQDSKDSTYSMSST
Q: Which results are given for B2?
A: subcutaneous fat mass ([1]; 10 days): suppressed; thyroid mass ([1]; 10 days): lowered; visceral fat mass ([1]; 10 days): suppressed; Body weight compared with vehicle [1]: lower; increase of core temperature relative to baseline ([1]; day 5 and 10): 8%; change in body weight versus vehicle ([1]; most pronounced in the first 5 days): effective in suppressing the effect of menopause (gonadectomy) on weight induction; kidney weight compared with vehicle (IgG2b) [2]: slightly lower; calcium excretion [2]: suppressed calcium excretion; calcium excretion suppressed ([2]; high dosage, female mice): 70%; calcium excretion (C57BL/6JRj male mice; all concentrations): reduced calcium excretion; kidney weight compared with vehicle (IgG2b) (C57BL/6JRj male mice; day 10): slightly lower

From US20260183363A1, “INHIBITION OF LUTEINIZING HORMONE (LH) ACTION AS TREATMENT OF PERIMENOPAUSAL AND POSTMENOPAUSAL SYMPTOMS AND COMPLICATIONS” (RIGSHOSPITALET, priority 2022, published 2026)
